These results are taken from paper PMC12216489, “Deep mutational scanning identifies Cas1 and Cas2 variants that enhance type II-A CRISPR-Cas spacer acquisition” (Nature Communications, 2025).

Common to all, as to experiment: SEC; analytical SEC on Superdex 200 Increase 10/300 GL in SEC buffer (20 mM HEPES pH 7.5, 500 mM NaCl, 5% v/v glycerol, 5 mM DTT) at 4 °C; Cas1 variants (15-100 μM, 2 equiv.) mixed with Cas2 variants (1 equiv.), incubated at 4 °C for 1 h before injection; fractions analysed by SDS-PAGE
Holding throughout (conditions): both partners purified

The target in test [1] is T1, Streptococcus pyogenes Cas1 R5A (S. pyogenes, UniProt Q99ZW1 1-289, R5A).
T1 construct: Cas1 of the Streptococcus pyogenes SF370 type II-A CRISPR-Cas locus with R5A; One of the plasmids pRAH246, pRAH248 or pRAH249; which plasmid holds which variant is in Supplementary Data 2; source: E. coli Rosetta 2(DE3) BL21, purified (Ni-NTA, SUMO protease, HiTrap Heparin, Superdex 200)
T1 sequence (looked up): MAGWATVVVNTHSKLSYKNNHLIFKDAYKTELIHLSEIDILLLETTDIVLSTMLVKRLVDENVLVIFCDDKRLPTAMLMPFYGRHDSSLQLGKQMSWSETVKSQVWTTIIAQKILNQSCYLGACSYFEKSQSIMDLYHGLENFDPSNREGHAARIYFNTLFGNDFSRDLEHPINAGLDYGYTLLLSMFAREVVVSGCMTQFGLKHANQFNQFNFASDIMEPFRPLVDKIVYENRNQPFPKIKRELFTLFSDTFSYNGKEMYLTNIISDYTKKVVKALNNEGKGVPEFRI

In test [2] the target is T2, Streptococcus pyogenes Cas1 (S. pyogenes, UniProt Q99ZW1 1-289).
T2 construct: Cas1 of the Streptococcus pyogenes SF370 type II-A CRISPR-Cas locus; One of the plasmids pRAH246, pRAH248 or pRAH249; which plasmid holds which variant is in Supplementary Data 2; Fractions with cleaved Cas1 were pooled after SUMO protease digestion; also called wild-type Cas1; source: E. coli Rosetta 2(DE3) BL21, purified (Ni-NTA, SUMO protease, HiTrap Heparin, Superdex 200)
T2 sequence (looked up): T1 sequence (looked up) with A5R

For test [3], the target named is T3, Streptococcus pyogenes Cas1 R5K (S. pyogenes, UniProt Q99ZW1 1-289, R5K).
T3 construct: Cas1 of the Streptococcus pyogenes SF370 type II-A CRISPR-Cas locus with R5K; One of the plasmids pRAH246, pRAH248 or pRAH249; which plasmid holds which variant is in Supplementary Data 2; source: E. coli Rosetta 2(DE3) BL21, purified (Ni-NTA, SUMO protease, HiTrap Heparin, Superdex 200)
T3 sequence (looked up): T1 sequence (looked up) with A5K

Positions count from the first letter of the chain named. Names may count otherwise.

B1: Streptococcus pyogenes Cas2 (natural protein, S. pyogenes, UniProt Q99ZW0 1-113, looked up)
chain: MSYRYMRMILMFDMPTDTAEERKAYRKFRKFLLSEGFIMHQFSIYSKLLLNNTANNAMIGRLREHNPNKGNITLLTVTEKQFARMIYLHGERNNCIANSDERLVFLGEAFDES
notes: Cas2 of the Streptococcus pyogenes SF370 type II-A CRISPR-Cas locus; One of the plasmids pRAH247, pRAH272 or pRAH273; which plasmid holds which variant is in Supplementary Data 2; Same protocol as for Cas1; also called wild-type Cas2; source: E. coli Rosetta 2(DE3) BL21, purified (Ni-NTA, SUMO protease, HiTrap Heparin, Superdex 200)
B1: the binding result in test [1], in test [2] and in test [3] was “binds” throughout.

B2: Streptococcus pyogenes Cas2 Y5A (natural protein, S. pyogenes, UniProt Q99ZW0 1-113, looked up)
chain: B1 chain with Y5A
notes: Cas2 of the Streptococcus pyogenes SF370 type II-A CRISPR-Cas locus with Y5A; One of the plasmids pRAH247, pRAH272 or pRAH273; which plasmid holds which variant is in Supplementary Data 2; source: E. coli Rosetta 2(DE3) BL21, purified (Ni-NTA, SUMO protease, HiTrap Heparin, Superdex 200)
With B2, the binding result in test [2] was “binds”.

B3: Streptococcus pyogenes Cas2 Y5F (natural protein, S. pyogenes, UniProt Q99ZW0 1-113, looked up)
chain: B1 chain with Y5F
notes: Cas2 of the Streptococcus pyogenes SF370 type II-A CRISPR-Cas locus with Y5F; One of the plasmids pRAH247, pRAH272 or pRAH273; which plasmid holds which variant is in Supplementary Data 2; source: E. coli Rosetta 2(DE3) BL21, purified (Ni-NTA, SUMO protease, HiTrap Heparin, Superdex 200)
Regarding B3, in test [2], the binding result is on record as “binds”.
